# Data reported in US20200317768A1 (published 2020).
# T1: cynomolgus monkey FcγRIIa1 extracellular domain with C-terminal His-tag (cynomolgus monkey)
# T1 construct: Expressed in FreeStyle 293 cells and purified; also called cyno FcγRIIa1; cynoFcgRIIa1; not shown: C-terminal His-tag
# T1 chain: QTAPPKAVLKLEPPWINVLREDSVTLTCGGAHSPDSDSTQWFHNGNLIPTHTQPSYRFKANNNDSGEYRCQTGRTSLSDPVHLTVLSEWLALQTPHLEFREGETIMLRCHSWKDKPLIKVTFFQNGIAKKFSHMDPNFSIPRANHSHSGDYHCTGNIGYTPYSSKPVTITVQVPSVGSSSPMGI
# T2: cynomolgus monkey FcγRIIa2 extracellular domain with C-terminal His-tag (cynomolgus monkey)
# T2 construct: Expressed in FreeStyle 293 cells and purified; also called cyno FcγRIIa2; cynoFcgRIIa2; not shown: C-terminal His-tag
# T2 chain: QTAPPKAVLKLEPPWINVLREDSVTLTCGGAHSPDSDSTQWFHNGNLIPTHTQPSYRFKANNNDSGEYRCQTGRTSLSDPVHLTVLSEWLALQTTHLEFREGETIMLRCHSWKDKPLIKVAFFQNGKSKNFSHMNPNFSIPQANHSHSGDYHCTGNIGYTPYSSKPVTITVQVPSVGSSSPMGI
# T3: human FcγRIIaR extracellular domain with C-terminal His-tag (human, UniProt P12318 34-217)
# T3 construct: Expressed in FreeStyle 293 cells and purified; also called human FcγRIIa (type R); FcgRIIaR; not shown: C-terminal His-tag
# T3 chain: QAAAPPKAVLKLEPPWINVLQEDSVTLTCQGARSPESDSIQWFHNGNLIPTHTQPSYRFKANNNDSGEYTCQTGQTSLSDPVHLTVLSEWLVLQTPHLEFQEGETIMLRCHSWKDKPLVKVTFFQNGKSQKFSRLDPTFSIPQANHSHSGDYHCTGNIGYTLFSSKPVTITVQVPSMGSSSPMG
# T4: cynomolgus monkey FcγRIIIaS extracellular domain with C-terminal His-tag (cynomolgus monkey, UniProt Q8SPW2 21-206 at identity 1.00))
# T4 construct: Expressed in FreeStyle 293 cells and purified; also called cyno FcγRIIIaS; cynoFcγRIIIaS; not shown: C-terminal His-tag
# T4 chain: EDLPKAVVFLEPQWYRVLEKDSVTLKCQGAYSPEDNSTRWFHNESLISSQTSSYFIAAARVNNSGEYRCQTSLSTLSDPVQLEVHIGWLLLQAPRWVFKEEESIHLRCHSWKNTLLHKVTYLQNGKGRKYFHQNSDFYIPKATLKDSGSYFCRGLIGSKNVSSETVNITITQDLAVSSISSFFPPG
# T5: cynomolgus monkey FcγRIIa3 extracellular domain with C-terminal His-tag (cynomolgus monkey)
# T5 construct: Expressed in FreeStyle 293 cells and purified; also called cyno FcγRIIa3; cynoFcgRIIa3; not shown: C-terminal His-tag
# T5 chain: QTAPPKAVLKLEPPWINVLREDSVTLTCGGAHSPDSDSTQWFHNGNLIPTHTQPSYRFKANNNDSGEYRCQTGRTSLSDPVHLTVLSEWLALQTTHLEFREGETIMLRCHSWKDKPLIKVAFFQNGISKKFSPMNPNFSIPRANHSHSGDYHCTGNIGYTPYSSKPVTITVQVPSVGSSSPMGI
# T6: human FcγRIIaH extracellular domain with C-terminal His-tag (human, UniProt P12318 34-217)
# T6 construct: Expressed in FreeStyle 293 cells and purified; also called human FcγRIIa (type H); FcgRIIaH; not shown: C-terminal His-tag
# T6 sequence: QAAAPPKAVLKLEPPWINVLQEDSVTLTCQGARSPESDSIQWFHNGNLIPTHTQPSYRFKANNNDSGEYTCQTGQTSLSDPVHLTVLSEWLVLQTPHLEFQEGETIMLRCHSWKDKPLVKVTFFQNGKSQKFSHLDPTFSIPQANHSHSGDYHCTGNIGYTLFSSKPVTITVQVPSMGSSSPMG
# T7: cynomolgus monkey FcγRIIb extracellular domain with C-terminal His-tag (cynomolgus monkey)
# T7 construct: Expressed in FreeStyle 293 cells and purified; also called cyno FcγRIIb; cynoFcγRIIb; not shown: C-terminal His-tag
# T7 chain: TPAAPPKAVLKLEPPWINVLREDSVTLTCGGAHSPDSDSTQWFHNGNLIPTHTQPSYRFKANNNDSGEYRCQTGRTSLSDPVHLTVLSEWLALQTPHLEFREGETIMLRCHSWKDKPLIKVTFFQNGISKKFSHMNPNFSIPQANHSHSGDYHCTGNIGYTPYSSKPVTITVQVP
# T8: human FcγRIIb extracellular domain with C-terminal His-tag (human, UniProt P31994 43-217)
# T8 construct: Expressed in FreeStyle 293 cells and purified; also called humanFcgRIIb; not shown: C-terminal His-tag
# T8 sequence: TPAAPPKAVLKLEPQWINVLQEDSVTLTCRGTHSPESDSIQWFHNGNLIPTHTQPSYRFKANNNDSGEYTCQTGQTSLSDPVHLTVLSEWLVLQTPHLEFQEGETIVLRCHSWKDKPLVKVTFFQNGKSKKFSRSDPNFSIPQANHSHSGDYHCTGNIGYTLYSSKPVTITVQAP
# B1: M103205H795-MY205 / M103202L889-SK1 (antibody, human IgG1, kappa)
# heavy: QVTLKESGPVLVKPTETLTLTCTVSGIDLSHDDISWVRQAPGKGLEWVGIISYAGSTYYASWAKGRLTISKDTSKNQVVLTMTNMDPVDTATYYCARGVPAYSHGGDLWGQGTLVTVSSASTKGPSVFPLAPSSKSTSGGTAALGCLVKDYFPEPVTVSWNSGALTSGVHTFPAVLQSSGLYSLSSVVTVPSSSLGTQTYICNVNHKPSNTKVDKKVEPKSCDKTHTCPPCPAPELLNGPSVFLFPPKPKDTLMISRTPEVTCVVVDVSDEDPEVKFNWYVDGVEVHNAKTKPREELYNSTYRVVSVLTVLHQDWLNGKEYKCKVSNKALPKPIEKTISKAKGQPREPQVYTLPPSREEMTKNQVSLTCLVKGFYPSDIAVEWESNGQPENNYKTTPPVLDSDGSFFLYSKLTVDKSRWQQGNVFSCSVMHEALHNHYTQKSLSLSP
# light: DIVMTQSPATLSLSPGERATLSCTSSQSVYHANWLSWFQQKPGQPPKLLIYWASTLAYGVPSRFSGSGSGTDFTLTISSLQPEDAATYYCAGGYGGGRYAFGQGTKVEIKRTVAAPSVFIFPPSDEQLKSGTASVVCLLNNFYPREAKVQWKVDNALQSGNSQESVTEQDSKDSTYSLSSTLTLSKADYEKHKVYACEVTHQGLSSPVTKSFNRGEC
# notes: Fc variant of M103205H795-SG1, expressed with M103202L889-SK1 as light chain; also called MS1032LO06-MY205
# B2: M103205H795-MY207 / M103202L889-SK1 (antibody, human IgG1, kappa)
# heavy: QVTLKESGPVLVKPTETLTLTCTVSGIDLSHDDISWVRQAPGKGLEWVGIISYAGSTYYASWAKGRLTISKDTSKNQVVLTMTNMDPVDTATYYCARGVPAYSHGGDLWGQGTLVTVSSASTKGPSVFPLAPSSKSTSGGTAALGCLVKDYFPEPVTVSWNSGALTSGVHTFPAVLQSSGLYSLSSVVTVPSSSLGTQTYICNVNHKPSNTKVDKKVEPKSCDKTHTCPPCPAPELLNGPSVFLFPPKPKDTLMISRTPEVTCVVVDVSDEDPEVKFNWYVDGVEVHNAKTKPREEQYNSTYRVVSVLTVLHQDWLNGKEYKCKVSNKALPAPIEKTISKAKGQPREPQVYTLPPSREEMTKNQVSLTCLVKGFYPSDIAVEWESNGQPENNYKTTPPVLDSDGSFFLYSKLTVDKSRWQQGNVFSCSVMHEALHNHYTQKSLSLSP
# light: DIVMTQSPATLSLSPGERATLSCTSSQSVYHANWLSWFQQKPGQPPKLLIYWASTLAYGVPSRFSGSGSGTDFTLTISSLQPEDAATYYCAGGYGGGRYAFGQGTKVEIKRTVAAPSVFIFPPSDEQLKSGTASVVCLLNNFYPREAKVQWKVDNALQSGNSQESVTEQDSKDSTYSLSSTLTLSKADYEKHKVYACEVTHQGLSSPVTKSFNRGEC
# notes: Fc variant of M103205H795-SG1, expressed with M103202L889-SK1 as light chain
# B3: M103205H795-MY208 / M103202L889-SK1 (antibody, human IgG1, kappa)
# heavy: QVTLKESGPVLVKPTETLTLTCTVSGIDLSHDDISWVRQAPGKGLEWVGIISYAGSTYYASWAKGRLTISKDTSKNQVVLTMTNMDPVDTATYYCARGVPAYSHGGDLWGQGTLVTVSSASTKGPSVFPLAPSSKSTSGGTAALGCLVKDYFPEPVTVSWNSGALTSGVHTFPAVLQSSGLYSLSSVVTVPSSSLGTQTYICNVNHKPSNTKVDKKVEPKSCDKTHTCPPCPAPELLNGPSVFLFPPKPKDTLMISRTPEVTCVVVDVSDEDPEVKFNWYVDGVEVHNAKTKPREELYNSTYRVVSVLTVLHQDWLNGKEYKCKVSNKALPAPIEKTISKAKGQPREPQVYTLPPSREEMTKNQVSLTCLVKGFYPSDIAVEWESNGQPENNYKTTPPVLDSDGSFFLYSKLTVDKSRWQQGNVFSCSVMHEALHNHYTQKSLSLSP
# light: DIVMTQSPATLSLSPGERATLSCTSSQSVYHANWLSWFQQKPGQPPKLLIYWASTLAYGVPSRFSGSGSGTDFTLTISSLQPEDAATYYCAGGYGGGRYAFGQGTKVEIKRTVAAPSVFIFPPSDEQLKSGTASVVCLLNNFYPREAKVQWKVDNALQSGNSQESVTEQDSKDSTYSLSSTLTLSKADYEKHKVYACEVTHQGLSSPVTKSFNRGEC
# notes: as for B2
# B4: M103205H795-MY206 / M103202L889-SK1 (antibody, human IgG1, kappa)
# heavy: QVTLKESGPVLVKPTETLTLTCTVSGIDLSHDDISWVRQAPGKGLEWVGIISYAGSTYYASWAKGRLTISKDTSKNQVVLTMTNMDPVDTATYYCARGVPAYSHGGDLWGQGTLVTVSSASTKGPSVFPLAPSSKSTSGGTAALGCLVKDYFPEPVTVSWNSGALTSGVHTFPAVLQSSGLYSLSSVVTVPSSSLGTQTYICNVNHKPSNTKVDKKVEPKSCDKTHTCPPCPAPELLNGPVVFLFPPKPKDTLMISRTPEVTCVVVDVSDEDPEVKFNWYVDGVEVHNAKTKPREELYNSTYRVVSVLTVLHQDWLNGKEYKCKVSNKALPKPIEKTISKAKGQPREPQVYTLPPSREEMTKNQVSLTCLVKGFYPSDIAVEWESNGQPENNYKTTPPVLDSDGSFFLYSKLTVDKSRWQQGNVFSCSVMHEALHNHYTQKSLSLSP
# light: DIVMTQSPATLSLSPGERATLSCTSSQSVYHANWLSWFQQKPGQPPKLLIYWASTLAYGVPSRFSGSGSGTDFTLTISSLQPEDAATYYCAGGYGGGRYAFGQGTKVEIKRTVAAPSVFIFPPSDEQLKSGTASVVCLLNNFYPREAKVQWKVDNALQSGNSQESVTEQDSKDSTYSLSSTLTLSKADYEKHKVYACEVTHQGLSSPVTKSFNRGEC
# notes: as for B2
# Legend:
# Test in all cases: SPR (Biacore); KD of SG1 divided by KD of the variant for this FcgR;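 note: relative to parent M103205H795-SG1 carrying the SG1 human heavy chain constant region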
# [1] = biological target: T1, cynomolgus monkey FcγRIIa1 …
# Experimental: (§1) Regarding such interactions, KD values were calculated using the following 1:1 binding model described in BIACORE® T100 Software Handbook BR1006-48 Edition AE.
# (§2) The behavior of interacting molecules according to the 1:1 binding model on BIACORE® can be described by Equation 1: Req=C·R max/(KD+C)+RI, wherein, Req is a plot of steady-state binding levels to analyte concentration. C is concentration, RI is bulk refractive index contribution in the sample, and Rmax is analyte binding capacity of the surface. When this equation is rearranged, KD can be expressed as Equation 2: KD=C·Rmax/(Req−RI)−C. KD can be calculated by substituting the values of Rmax, RI, and C into Equation 1 or Equation 2. From the current measurement conditions, RI=0, C=2 μmol/L can be used.
# (§3) The variants were expressed using M103202L889-SK1 as the light chain and their affinity was analyzed.
# [2] = biological target: T2, cynomolgus monkey FcγRIIa2 …
# Experimental: as §1, §2, §3
# [3] = biological target: T3, human FcγRIIaR extracellular domain …
# Experimental: as §1, §2, §3
# [4] = biological target: T9, human FcγRIIIaV extracellular domain with C-terminal His-tag (human, UniProt P08637 17-208)
# T9 construct: Expressed in FreeStyle 293 cells and purified; also called FcgRIIIaV; not shown: C-terminal His-tag
# Experimental: as §1, §2, §3
# [5] = biological target: T4, cynomolgus monkey FcγRIIIaS …
# Experimental: as §1, §2, §3
# [6] = biological target: T5, cynomolgus monkey FcγRIIa3 …
# Experimental: as §1, §2, §3
# [7] = biological target: T6, human FcγRIIaH extracellular domain …
# Experimental: as §1, §2, §3
# [8] = biological target: T7, cynomolgus monkey FcγRIIb extracellular …
# Experimental: as §1, §2, §3
# [9] = biological target: T8, human FcγRIIb extracellular domain with …
# Experimental: as §1, §2, §3
# T9 sequence (P08637 17-208 F176V): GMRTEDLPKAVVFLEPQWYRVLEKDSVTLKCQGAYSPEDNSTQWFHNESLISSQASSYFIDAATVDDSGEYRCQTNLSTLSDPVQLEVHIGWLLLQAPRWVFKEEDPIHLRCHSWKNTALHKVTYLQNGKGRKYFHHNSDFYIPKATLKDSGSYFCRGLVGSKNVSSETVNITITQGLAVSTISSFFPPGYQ
Binder,KD fold (SG1 = 1) [1],KD fold (SG1 = 1) [2],KD fold (SG1 = 1) [3],KD fold (SG1 = 1) [4],KD fold (SG1 = 1) [5],KD fold (SG1 = 1) [6],KD fold (SG1 = 1) [7],KD fold (SG1 = 1) [8],KD fold (SG1 = 1) [9]
B1,3.5 fold,4.6 fold,0.8 fold,0.06 fold,0.06 fold,5.7 fold,1.5 fold,7.2 fold,8 fold
B2,2.1 fold,8.6 fold,0.4 fold,0.1 fold,0.08 fold,2.5 fold,0.5 fold,2.2 fold,2.9 fold
B3,2.7 fold,5.4 fold,0.5 fold,0.08 fold,0.18 fold,2.5 fold,0.8 fold,2.8 fold,4.2 fold
B4,4 fold,6.5 fold,0.8 fold,0.1 fold,0.11 fold,5.7 fold,0.7 fold,4 fold,5.1 fold
